From publication PMC9482650, “Quantitative fragmentomics allow affinity mapping of interactomes” (Nature Communications, 2022)

T1: APBA3_1, O96018
T1 sequence (O96018 389-490, limits assumed, looked up): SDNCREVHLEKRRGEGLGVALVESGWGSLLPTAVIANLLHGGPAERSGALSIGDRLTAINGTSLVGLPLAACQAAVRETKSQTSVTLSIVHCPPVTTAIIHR

T2: ARHGAP21, Q5T5U3
T2 sequence (Q5T5U3 45-169, limits assumed, looked up): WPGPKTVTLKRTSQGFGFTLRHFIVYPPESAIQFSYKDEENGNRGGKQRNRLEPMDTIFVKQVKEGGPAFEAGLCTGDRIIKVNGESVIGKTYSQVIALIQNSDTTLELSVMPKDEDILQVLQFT

T3: CARD11, Q9BXL7
T3 sequence (Q9BXL7 662-765, limits assumed, looked up): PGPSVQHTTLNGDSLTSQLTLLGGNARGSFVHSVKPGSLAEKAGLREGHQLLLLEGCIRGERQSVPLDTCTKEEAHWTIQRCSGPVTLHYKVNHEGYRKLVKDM

T4: DVL3, Q92997
T4 sequence (Q92997 244-331, limits assumed, looked up): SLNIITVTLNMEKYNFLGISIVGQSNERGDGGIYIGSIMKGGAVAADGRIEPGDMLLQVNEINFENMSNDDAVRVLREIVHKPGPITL

T5: MPDZ_10, O75970
T5 sequence (O75970 1624-1722, limits assumed, looked up): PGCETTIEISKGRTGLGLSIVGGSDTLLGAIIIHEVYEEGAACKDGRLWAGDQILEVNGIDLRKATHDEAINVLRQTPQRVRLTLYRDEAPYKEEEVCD

T6: MPP7, Q5T2T1
T6 sequence (Q5T2T1 134-230, limits assumed, looked up): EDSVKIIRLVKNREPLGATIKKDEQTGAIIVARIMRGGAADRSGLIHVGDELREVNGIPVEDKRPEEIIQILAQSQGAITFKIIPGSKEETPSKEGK

T7: NHERF3_4, Q5T2W1
T7 sequence (Q5T2W1 373-468, limits assumed, looked up): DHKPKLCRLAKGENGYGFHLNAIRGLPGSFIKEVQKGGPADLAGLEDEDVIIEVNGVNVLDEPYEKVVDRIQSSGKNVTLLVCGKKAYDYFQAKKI

T8: RADIL, Q96JH8
T8 sequence (Q96JH8 971-1071, limits assumed, looked up): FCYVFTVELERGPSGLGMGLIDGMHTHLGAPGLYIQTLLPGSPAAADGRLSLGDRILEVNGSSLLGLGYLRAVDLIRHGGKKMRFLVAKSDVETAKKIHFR


What was measured:
Assay in all cases: holdup assay
Design in all cases: key: below the threshold = too weak to quantify, mostly under pKd 3.1 to 4
Conditions in all cases: plain residues with an end cap or a label only (N-terminal biotin on a linker: ado-ado)
APBA3_1, O96018 = target: T1, APBA3_1, O96018
ARHGAP21, Q5T5U3 = target: T2, ARHGAP21, Q5T5U3
ARHGEF12, Q9NZN5-2 = target: ARHGEF12, Q9NZN5-2
Chain of ARHGEF12, Q9NZN5-2 (Q9NZN5 other isoform, or with tags, fused parts or gaps): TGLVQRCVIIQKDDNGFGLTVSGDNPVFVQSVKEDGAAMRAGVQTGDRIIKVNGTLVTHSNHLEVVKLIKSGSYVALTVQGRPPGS

CARD11, Q9BXL7 = target: T3, CARD11, Q9BXL7
DLG2_2, Q15700 = target: DLG2_2, Q15700
Chain of DLG2_2, Q15700 (Q15700 189-283): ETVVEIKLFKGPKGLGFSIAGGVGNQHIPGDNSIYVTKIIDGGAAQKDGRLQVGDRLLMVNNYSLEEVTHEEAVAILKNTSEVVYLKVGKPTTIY

DLG4_1, P78352 = target: DLG4_1, P78352
Chain of DLG4_1, P78352 (P78352 62-152): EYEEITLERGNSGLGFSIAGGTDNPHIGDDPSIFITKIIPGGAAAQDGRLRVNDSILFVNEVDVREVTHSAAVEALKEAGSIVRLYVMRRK

DVL3, Q92997 = target: T4, DVL3, Q92997
FRMPD2_3, Q68DX3 = target: FRMPD2_3, Q68DX3
Chain of FRMPD2_3, Q68DX3 (Q68DX3 1073-1166): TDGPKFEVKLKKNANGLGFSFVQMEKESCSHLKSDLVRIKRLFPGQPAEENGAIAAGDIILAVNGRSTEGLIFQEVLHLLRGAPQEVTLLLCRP

FRMPD4, Q14CM0 = target: FRMPD4, Q14CM0
Chain of FRMPD4, Q14CM0 (Q14CM0 67-160): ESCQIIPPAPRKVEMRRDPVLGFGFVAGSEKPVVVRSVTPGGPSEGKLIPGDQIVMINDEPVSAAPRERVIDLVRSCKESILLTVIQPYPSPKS

GORASP1, Q9BQQ3 = target: GORASP1, Q9BQQ3
Chain of GORASP1, Q9BQQ3 (Q9BQQ3 1-208): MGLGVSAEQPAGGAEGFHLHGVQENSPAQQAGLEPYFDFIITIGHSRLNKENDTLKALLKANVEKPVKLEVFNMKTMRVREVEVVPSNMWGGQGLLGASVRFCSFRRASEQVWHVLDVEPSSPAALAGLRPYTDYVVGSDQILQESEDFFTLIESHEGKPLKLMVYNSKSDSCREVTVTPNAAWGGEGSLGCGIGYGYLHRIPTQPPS

GRIP2_5, Q9C0E4 = target: GRIP2_5, Q9C0E4
Chain of GRIP2_5, Q9C0E4 (Q9C0E4 544-642): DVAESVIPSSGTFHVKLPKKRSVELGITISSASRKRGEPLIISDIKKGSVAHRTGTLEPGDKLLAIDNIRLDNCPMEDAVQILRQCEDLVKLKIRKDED

Inadl_10, Q8NI35 = target: Inadl_10, Q8NI35
Chain of Inadl_10, Q8NI35 (Q8NI35 1673-1763): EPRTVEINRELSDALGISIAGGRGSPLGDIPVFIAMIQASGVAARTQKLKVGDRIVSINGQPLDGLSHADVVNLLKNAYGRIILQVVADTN

Inadl_6, Q8NI35 = target: Inadl_6, Q8NI35
Chain of Inadl_6, Q8NI35 (Q8NI35 1058-1167): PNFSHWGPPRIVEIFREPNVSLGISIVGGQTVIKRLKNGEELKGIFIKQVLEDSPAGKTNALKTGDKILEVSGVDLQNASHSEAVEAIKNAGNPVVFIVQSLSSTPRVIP

Inadl_9, Q8NI35 = target: Inadl_9, Q8NI35
Chain of Inadl_9, Q8NI35 (Q8NI35 1530-1615): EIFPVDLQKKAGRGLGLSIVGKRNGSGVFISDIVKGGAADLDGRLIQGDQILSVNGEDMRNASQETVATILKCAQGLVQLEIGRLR

LDB3, O75112 = target: LDB3, O75112
Chain of LDB3, O75112 (O75112 1-94): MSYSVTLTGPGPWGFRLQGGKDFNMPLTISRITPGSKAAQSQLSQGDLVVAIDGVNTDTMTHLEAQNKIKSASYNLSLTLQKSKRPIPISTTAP

LNX1_1, Q8TBB1 = target: LNX1_1, Q8TBB1
Chain of LNX1_1, Q8TBB1 (Q8TBB1 261-371): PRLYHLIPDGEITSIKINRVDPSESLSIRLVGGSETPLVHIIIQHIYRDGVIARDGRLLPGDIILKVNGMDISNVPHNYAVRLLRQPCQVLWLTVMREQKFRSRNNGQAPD

LNX1_2, Q8TBB1 = target: LNX1_2, Q8TBB1
Chain of LNX1_2, Q8TBB1 (Q8TBB1 371-470): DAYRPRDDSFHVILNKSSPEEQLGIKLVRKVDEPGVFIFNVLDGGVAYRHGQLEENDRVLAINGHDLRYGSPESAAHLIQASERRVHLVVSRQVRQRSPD

MAGI1_1, Q96QZ7 = target: MAGI1_1, Q96QZ7
Chain of MAGI1_1, Q96QZ7 (Q96QZ7 1-106): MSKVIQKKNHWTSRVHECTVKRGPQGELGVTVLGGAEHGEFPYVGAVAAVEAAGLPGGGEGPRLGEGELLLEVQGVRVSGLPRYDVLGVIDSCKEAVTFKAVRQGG

MAGI2_2, Q86UL8 = target: MAGI2_2, Q86UL8
Chain of MAGI2_2, Q86UL8 (Q86UL8 410-522): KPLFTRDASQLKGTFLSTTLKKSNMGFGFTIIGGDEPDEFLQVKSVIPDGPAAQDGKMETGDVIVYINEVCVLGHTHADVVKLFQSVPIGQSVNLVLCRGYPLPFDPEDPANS

MAGI2_3, Q86UL8 = target: MAGI2_3, Q86UL8
Chain of MAGI2_3, Q86UL8 (Q86UL8 600-682): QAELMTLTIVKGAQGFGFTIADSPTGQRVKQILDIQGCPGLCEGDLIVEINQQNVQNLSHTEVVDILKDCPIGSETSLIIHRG

MAGI2_4, Q86UL8 = target: MAGI2_4, Q86UL8
Chain of MAGI2_4, Q86UL8 (Q86UL8 772-865): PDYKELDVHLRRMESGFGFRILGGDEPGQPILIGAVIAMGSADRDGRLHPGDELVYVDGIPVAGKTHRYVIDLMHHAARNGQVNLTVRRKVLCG

MAGI3_2, Q5TCQ9 = target: MAGI3_2, Q5TCQ9
Chain of MAGI3_2, Q5TCQ9 (Q5TCQ9 398-503): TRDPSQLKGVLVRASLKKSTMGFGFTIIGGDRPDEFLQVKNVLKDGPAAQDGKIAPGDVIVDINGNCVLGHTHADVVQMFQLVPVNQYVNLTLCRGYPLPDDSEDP

MPDZ_10, O75970 = target: T5, MPDZ_10, O75970
MPP7, Q5T2T1 = target: T6, MPP7, Q5T2T1
NHERF3_4, Q5T2W1 = target: T7, NHERF3_4, Q5T2W1
NOS1, P29475 = target: NOS1, P29475
Chain of NOS1, P29475 (P29475 9-101): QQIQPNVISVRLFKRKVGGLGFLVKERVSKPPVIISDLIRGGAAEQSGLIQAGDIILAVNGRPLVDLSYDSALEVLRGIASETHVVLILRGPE

PDZRN4_1, Q6ZMN7 = target: PDZRN4_1, Q6ZMN7
Chain of PDZRN4_1, Q6ZMN7 (Q6ZMN7 213-318): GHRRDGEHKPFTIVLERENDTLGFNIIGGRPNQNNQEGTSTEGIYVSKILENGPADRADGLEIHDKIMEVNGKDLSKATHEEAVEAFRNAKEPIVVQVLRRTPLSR

PTPN3, P26045 = target: PTPN3, P26045
Chain of PTPN3, P26045 (P26045 505-587): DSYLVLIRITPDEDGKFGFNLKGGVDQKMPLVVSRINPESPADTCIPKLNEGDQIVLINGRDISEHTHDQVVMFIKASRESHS

RADIL, Q96JH8 = target: T8, RADIL, Q96JH8
SCRIB_3, Q14160 = target: SCRIB_3, Q14160
Chain of SCRIB_3, Q14160 (Q14160 999-1103): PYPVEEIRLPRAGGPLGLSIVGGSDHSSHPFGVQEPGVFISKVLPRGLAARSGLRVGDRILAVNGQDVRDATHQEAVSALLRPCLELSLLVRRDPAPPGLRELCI

Binder | pKd (APBA3_1, O96018) | pKd (ARHGAP21, Q5T5U3) | pKd (ARHGEF12, Q9NZN5-2) | pKd (CARD11, Q9BXL7) | pKd (DLG2_2, Q15700) | pKd (DLG4_1, P78352) | pKd (DVL3, Q92997) | pKd (FRMPD2_3, Q68DX3) | pKd (FRMPD4, Q14CM0) | pKd (GORASP1, Q9BQQ3) | pKd (GRIP2_5, Q9C0E4) | pKd (Inadl_10, Q8NI35) | pKd (Inadl_6, Q8NI35) | pKd (Inadl_9, Q8NI35) | pKd (LDB3, O75112) | pKd (LNX1_1, Q8TBB1) | pKd (LNX1_2, Q8TBB1) | pKd (MAGI1_1, Q96QZ7) | pKd (MAGI2_2, Q86UL8) | pKd (MAGI2_3, Q86UL8) | other results
IPGKEFDTPL [PLCB1, Q9NQ66] | below the threshold | 3.58 | 3.61 | below the threshold | below the threshold | 3.51 | below the threshold | below the threshold | 4.95 | below the threshold | below the threshold | below the threshold | below the threshold | below the threshold | below the threshold | below the threshold | below the threshold | below the threshold | below the threshold | below the threshold | pKd (MAGI2_4, Q86UL8): below the threshold; pKd (MAGI3_2, Q5TCQ9): below the threshold; pKd (MPDZ_10, O75970): below the threshold; pKd (MPP7, Q5T2T1): below the threshold; pKd (NHERF3_4, Q5T2W1): 4.31; pKd (NOS1, P29475): below the threshold; pKd (PDZRN4_1, Q6ZMN7): 4.3; pKd (PTPN3, P26045): 4.82; pKd (RADIL, Q96JH8): below the threshold; pKd (SCRIB_3, Q14160): 4.3
NLQEHSTTSV [RSBN1, Q5VWQ0] | below the threshold | below the threshold | 4 | below the threshold | 3.67 | 3.84 | below the threshold | below the threshold | below the threshold | below the threshold | below the threshold | below the threshold | below the threshold | below the threshold | below the threshold | below the threshold | below the threshold | below the threshold | 3.89 | below the threshold | pKd (MAGI2_4, Q86UL8): 3.5; pKd (MAGI3_2, Q5TCQ9): 4.38; pKd (MPDZ_10, O75970): below the threshold; pKd (MPP7, Q5T2T1): below the threshold; pKd (NHERF3_4, Q5T2W1): below the threshold; pKd (NOS1, P29475): below the threshold; pKd (PDZRN4_1, Q6ZMN7): below the threshold; pKd (PTPN3, P26045): 4.49; pKd (RADIL, Q96JH8): below the threshold; pKd (SCRIB_3, Q14160): 3.63
DHLGGGGESM [TNRC6A, Q8NDV7] | below the threshold | below the threshold | below the threshold | below the threshold | below the threshold | below the threshold | below the threshold | below the threshold | below the threshold | below the threshold | below the threshold | below the threshold | below the threshold | below the threshold | below the threshold | below the threshold | below the threshold | below the threshold | below the threshold | below the threshold | pKd (MAGI2_4, Q86UL8): below the threshold; pKd (MAGI3_2, Q5TCQ9): below the threshold; pKd (MPDZ_10, O75970): below the threshold; pKd (MPP7, Q5T2T1): below the threshold; pKd (NHERF3_4, Q5T2W1): below the threshold; pKd (NOS1, P29475): below the threshold; pKd (PDZRN4_1, Q6ZMN7): below the threshold; pKd (PTPN3, P26045): 3.7; pKd (RADIL, Q96JH8): below the threshold; pKd (SCRIB_3, Q14160): below the threshold
